{
  "source": "paper PMC12599243",
  "about": "“Mechanistic insights into DNA binding by BD1 of the TAF1 tandem bromodomain module”",
  "tested_on": "TAF1 tandem bromodomain N1460F (human)",
  "assay": "EMSA",
  "conditions": "no peptide; EMSA: 50 mM HEPES pH 7.5, 100 mM NaCl, 35 nM DNA, 1 h at 4 C; 6% native PAGE, 0.5x TBE, 100 V on ice. HeLa mononucleosome pulldown (undefined DNA) not listed.",
  "data": [
    {"substance": "147 bp Widom 601 DNA", "values": [
      {"measurement": "Kd", "result": 18.2, "unit": "µM"}
    ]}
  ]
}
